One assay has as its target human plasmin (human, UniProt P00747 97-810, limits assumed). Put plainly: protease inhibition, Ki,app.
Assay [1] concerns the target T1, human plasma kallikrein (human, UniProt P03952 20-638).
T1 construct: The active enzyme comes from the zymogen prekallikrein
Put plainly: protease inhibition, Ki,app.

In assay [2] the target is porcine pancreatic kallikrein (porcine, UniProt P00752 8-246). As to the kind of experiment: protease inhibition, Ki,app.
The next assay deals with human plasma factor XIa (human, UniProt P03951 19-625). Put plainly: protease inhibition, Ki,app.
The target in assay [3] is T1, human plasma kallikrein. As to the kind of experiment: ratio of Ki,app values, reference aprotinin.

T1 sequence (P03952 20-638 limits assumed): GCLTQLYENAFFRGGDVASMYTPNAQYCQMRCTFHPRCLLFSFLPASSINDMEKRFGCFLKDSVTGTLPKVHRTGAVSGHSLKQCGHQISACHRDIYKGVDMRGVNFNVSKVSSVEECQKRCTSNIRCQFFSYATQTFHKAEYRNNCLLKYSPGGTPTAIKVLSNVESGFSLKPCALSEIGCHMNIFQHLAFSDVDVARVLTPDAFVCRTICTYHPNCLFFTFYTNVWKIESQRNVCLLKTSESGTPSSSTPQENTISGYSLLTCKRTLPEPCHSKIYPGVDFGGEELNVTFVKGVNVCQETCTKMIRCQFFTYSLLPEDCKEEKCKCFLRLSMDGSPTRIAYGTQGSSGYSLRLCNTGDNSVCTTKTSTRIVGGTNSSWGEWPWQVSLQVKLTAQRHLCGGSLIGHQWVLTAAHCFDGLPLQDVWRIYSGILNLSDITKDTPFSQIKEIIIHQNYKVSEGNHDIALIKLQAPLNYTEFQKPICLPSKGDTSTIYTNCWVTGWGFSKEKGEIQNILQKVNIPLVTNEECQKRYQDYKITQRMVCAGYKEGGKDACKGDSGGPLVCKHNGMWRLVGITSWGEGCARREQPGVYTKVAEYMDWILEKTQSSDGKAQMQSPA
Chain of porcine pancreatic kallikrein (P00752 8-246): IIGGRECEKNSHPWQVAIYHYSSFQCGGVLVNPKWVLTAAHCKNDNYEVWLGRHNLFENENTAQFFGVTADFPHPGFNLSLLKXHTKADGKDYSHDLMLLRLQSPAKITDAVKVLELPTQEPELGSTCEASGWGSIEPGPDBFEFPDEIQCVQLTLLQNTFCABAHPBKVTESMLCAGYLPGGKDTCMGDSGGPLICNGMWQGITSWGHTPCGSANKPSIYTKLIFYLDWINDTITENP
Chain of human plasmin (P00747 97-810 limits assumed): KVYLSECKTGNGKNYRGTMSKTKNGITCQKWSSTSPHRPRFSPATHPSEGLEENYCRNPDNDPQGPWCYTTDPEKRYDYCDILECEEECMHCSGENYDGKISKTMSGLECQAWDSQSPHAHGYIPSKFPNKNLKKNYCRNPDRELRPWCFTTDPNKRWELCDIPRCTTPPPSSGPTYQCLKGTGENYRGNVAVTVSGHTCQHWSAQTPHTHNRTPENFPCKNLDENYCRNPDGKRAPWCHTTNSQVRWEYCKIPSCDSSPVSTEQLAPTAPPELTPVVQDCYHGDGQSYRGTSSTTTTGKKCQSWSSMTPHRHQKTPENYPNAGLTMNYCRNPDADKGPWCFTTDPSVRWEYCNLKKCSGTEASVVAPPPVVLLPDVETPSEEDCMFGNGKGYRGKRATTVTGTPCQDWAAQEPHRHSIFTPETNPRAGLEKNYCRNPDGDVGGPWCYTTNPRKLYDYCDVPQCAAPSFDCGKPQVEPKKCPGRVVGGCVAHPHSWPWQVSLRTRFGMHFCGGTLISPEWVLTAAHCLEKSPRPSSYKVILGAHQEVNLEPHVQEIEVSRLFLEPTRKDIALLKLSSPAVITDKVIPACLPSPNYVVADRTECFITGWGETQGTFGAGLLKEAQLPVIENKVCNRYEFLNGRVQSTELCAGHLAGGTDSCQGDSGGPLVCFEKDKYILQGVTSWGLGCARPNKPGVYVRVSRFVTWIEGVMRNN

B1: PEP-1 KI polypeptide (designed binder)
chain: EAMHSFCAFKADDGPCRAAHPRWFFNIFTRQCEEFIYGGCEGNQNRFESLEECKKMCTRD
notes: Non-naturally occurring Kunitz domain polypeptide from a phage display library; Molecular weight 7,054 Daltons
In the case of B1, the Ki in the assay with human plasmin was determined as 140 nM; with human plasma kallikrein [1], 0.044 nM; in assay [2], 27000 nM; with human plasma factor XIa, 10 nM. Further, the “fold higher affinity (Ki,app) than aprotinin” value with human plasma kallikrein [3] is 1000 fold.

(Values after US8124586 (DYAX, dated 2012).)
